Data as given in the supplement of paper PMC10567573.

B1: TRIM55 (parent)
chain: FQMEKIEHGYENMNHFTVNLNREE

Variants of: B1
Assay: protein stability index of a GFP-peptide fusion (GPS, HEK-293T) (PSI 1-6); higher = more stable
Conditions: c terminus: a fixed tail appended
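Further: lentivirally expressed fusions sorted by FACS into six bins by GFP to DsRed ratio, PSI derived from sequencing read proportions per bin multiplied by bin number.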

Protein stability index of substitutions, site by site:
M13: F 2.82; Y 2.38; D 3.79; L 2.61; P 3.51; R 2.68; N 3.81; V 2.46; I 2.52; C 2.93; G 3.75; A 3.23; H 3.13; S 3.04; E 3.67; Q 3.33; T 3.36; W 2.12; K 2.87
N12: E 3.57; D 3.65; A 2.19; I 1.94; W 1.83; P 2.37; V 2.04; Y 1.84; R 2.34; M 1.99; C 2.06; T 2.76; Q 2.51; H 2.38; S 2.3; K 2.44; G 2.98; L 2.14; F 2.17
E11: K 2.42; A 1.82; Q 2.18; C 1.56; V 1.97; I 2.31; M 1.98; Y 2.08; N 2.16; H 1.95; R 2.15; F 2.04; W 2.35; S 2.59; P 2.07; G 2.14; T 2.42; L 1.81; D 2.55
H15: T 2.76; I 1.99; F 2.14; L 1.8; K 3.15; Y 1.82; V 1.76; N 3.77; S 3.14; M 1.95; C 2.22; P 1.5; W 1.98; Q 3.57; A 2.1; E 3.62; G 3.72; D 3.97; R 3.12
V18: W 1.69; P 2.11; L 3.08; M 3.49; D 3.94; A 3.24; Q 4.15; E 3.61; S 3.77; I 2.94; F 3.21; N 3.52; G 3.74; T 3.86; Y 2.39; H 3.66; K 3.27; C 2.03; R 3.73
N14: S 2.68; C 2.29; V 2.15; I 1.98; M 2.29; T 2.69; H 1.69; R 2.86; P 2.79; Y 3.78; G 3.21; A 3.17; Q 3.11; L 2.29; D 3.45; E 4.16; K 2.99; F 2.53
E7: Y 2.1; F 1.44; R 2.05; A 2.45; C 2.42; P 2.6; V 1.85; M 2.46; T 2.27; I 2.42; D 2.63; Q 2.73; S 2.34; K 2.05; W 2.65; G 2.1; N 2.3; L 2.46; H 2.66
L20: P 2.88; F 2.71; D 3.47; I 2.64; H 3.23; R 3.01; K 3.04; E 3.53; W 2.35; M 2.51; Y 2.42; N 3.5; C 2.33; V 1.91; S 3.2; T 2.7; A 3.2; G 3.43; Q 3.33
I6: Y 2.97; H 3.24; N 2.87; A 3.27; L 3.44; P 3.32; K 3.07; S 3.18; C 2.64; F 2.15; W 2.06; E 4.13; Q 3.32; D 3.25; T 2.87; R 2.6; V 3; G 2.66; M 2.84
H8: V 3.03; F 2.09; N 2.89; G 2.37; T 2.73; A 2.77; K 2.84; C 2.65; D 2.71; Y 3.03; M 2.51; E 3.51; Q 2.89; P 2.77; L 2.44; W 2; R 2.74; I 2.21; S 3.02
F16: A 4.17; L 4.21; N 4.31; G 4.23; M 3.87; T 4.36; E 4.5; P 4.4; W 1.96; Y 3.29; D 4.71; V 4.01; K 4.52; C 4.06; Q 4.23; H 4.09; I 3.65; R 4.25; S 4.41
N21: A 2.89; C 1.82
N19: A 3.17; T 2.27; E 3.28; I 2.05; D 3.37; M 2.27; V 2.29; G 2.72; W 2.09; R 2.4; K 2.47; L 2.22; P 3.4; Y 1.86; S 2.16; C 2.65; Q 2.68; F 2.29; H 2.24
K5: E 4.2; S 3.43; D 4.14; A 2.9; R 2.68; T 3.08; Q 3.51; H 2.61; V 2.49; F 1.7; G 2.93; M 2.83; P 3.55; Y 2.16; C 3.14; W 2.41; N 3.54; I 2.24; L 2.6
Y10: S 3.44; V 3.35; R 3.18; N 3.27; M 3.31; A 3.55; T 3.1; L 3.08; G 3.31; D 3.31; I 3.14; F 3.02; E 3.74; P 3.63; C 2.74; H 2.94; W 2.42; Q 3.37; K 2.82
E4: H 2.66; L 2.43; D 2.76; M 1.73; R 2.19; P 2.58; C 2.16; F 1.58; Y 2.1; W 1.94; K 2.37; T 2.13; Q 2.42; G 2.45; S 1.9; I 2.24; A 2.5; V 1.8; N 2.64
G9: R 2.91; N 3.26; L 2.94; D 3.9; I 2.4; F 2.34; T 3.07; Y 2.11; C 2.33; W 3.05; K 2.81; P 2.93; E 3.38; Q 3.05; S 3.21; H 3.22; M 2.45; V 3.03; A 3.63
M3: V 2.8; S 2.88; Q 3.41; R 2.66; L 2.82; N 3.36; W 2.11; Y 3.06; T 3.44; P 2.91
T17: S 3.03; E 4.27; M 2.77; D 4.07; A 2.59; F 1.74; K 3.31; C 2.49; V 2.25; H 3.4; Q 3.75; L 2.31; P 3.7; N 3.76; G 2.86; W 1.93; Y 1.92; I 2.06; R 3.1
